Data reported in paper PMC9185715.

Columns and labels:
nsp12 (RdRp);nsp7;nsp8 [1] = molecular target: T1, nsp12 (RdRp);nsp7;nsp8 (SARS-CoV-2;SARS-CoV-2;SARS-CoV-2, UniProt P0DTD1;P0DTD1;P0DTD1 4393-5324;3860-3942;3943-4140, ||); experiment: EMSA; 10 mM MgCl2; broadened shifted bands; conditions: protein: recombinant;recombinant;recombinant; tags: ;N-terminal His6 removed by TEV;; copies: 1;1;2
nsp12 (RdRp);nsp7;nsp8 [2] = molecular target: T1, nsp12 (RdRp);nsp7;nsp8; experiment: EMSA; 10 mM MgCl2; conditions: protein: recombinant;recombinant;recombinant; tags: ;N-terminal His6 removed by TEV;; copies: 1;1;2; hairpin, blunt, no 5' overhang
nsp12 (RdRp);nsp7;nsp8 [3] = molecular target: T1, nsp12 (RdRp);nsp7;nsp8; experiment: EMSA; 2.4 uM protein; conditions: protein: recombinant;recombinant;recombinant; tags: ;N-terminal His6 removed by TEV;; copies: 1;1;2

UUUUCAUGCUACGCGUAGUUUUCUACGCG (structured_RNA) [CoV-RNA1]
binding result (nsp12 (RdRp);nsp7;nsp8 [1]): binds

CGCGUAGUUUUCUACGCG (structured_RNA) [CoV-RNA1 truncated]
binding result (nsp12 (RdRp);nsp7;nsp8 [2]): no binding

TTTTCATGCTACGCGTAGTTTTCTACGCG (structured_DNA) [CoV-DNA1]
binding result (nsp12 (RdRp);nsp7;nsp8 [3]): no binding
